Data as given in paper PMC10095097.

Target: NTR 2.0 (engineered nitroreductase; Vibrio vulnificus NfsB F70A/F108Y) (Vibrio vulnificus (CMCP6))
Assay: crystal structure; hanging-drop vapour diffusion at 291 K; protein 10 mg/mL in 40 mM Tris-HCl pH 7.0, 200 mM NaCl; precipitant 0.1 M sodium acetate trihydrate pH 4.5, 32% (v/v) PEG 300; two molecules in the asymmetric unit; FMN and acetate bound

Substance: NTR 2.0 (engineered nitroreductase; Vibrio vulnificus NfsB F70A/F108Y) (enzyme)
- stoichiometry N: 2
